In patent US20250368978A1, “SQUALENE HOPENE CYCLASE VARIANTS FOR PRODUCING SCLAREOLIDE” (INTERNATIONAL FLAVORS & FRAGRANCES INC., priority 2022, published 2025):

B1: M184T: GmSHC mutant M184T from site saturation mutagenesis (protein)
chain: MSPADISTKSSSFQRLDNMLPEAVSSACDWLIDQQKPDGHWVGPVESNACMEAQWCLALWFLGQEDHPLRPRLAQALLEMQREDGSWGIYVGADHGDINTTVEAYAALRSMGYAADMPIMAKSAAWIQQKGGLRNVRVFTRYWLALIGEWPWDKTPNLPPEIIWLPDNFIFSIYNFAQWARATTMPLTILSARRPSRPLLPENRLDGLFPEGRENFDYELPVKGEEDLWGRFFRAADKGLHSLQSFPVRRFVPREAAIRHVIEWIIRHQDADGGWGGIQPPWIYGLMALSVEGYPLHHPVLAKAMDALNDPGWRRDKGDASWIQATNSPVWDTMLAVLALHDAGAEDRYSPQMDKAIGWLLDRQVRVKGDWSIKLPDTEPGGWAFEYANDKYPDTDDTAVALIALAGCRHRPEWRERDIEGAISRGVNWLLAMQSSSGGWGAFDKDNNRSILTKIPFCDFGEALDPPSVDVTAHVLEAFGLLGISRNHPSVQKALAYIRSEQERNGAWFGRWGVNYVYGTGAVLPALAAIGEDMTQPYIVRACDWLMSVQQENGGWGESCASYMDINAVGHGVATASQTAWALIGLLAAKRPKDREAIARGCQFLIERQEDGSWTEEEYTGTGFPGYGVGQAIKLDDPSLPDRLLQGAELSRAFMLRYDLYRQYFPVMALSRARRMMKEDASAAA
modifications: Gluconobacter morbifer
notes: GmSHC mutant M184T from site saturation mutagenesis
B2: Y284W: GmSHC variant Y284W from site saturation mutagenesis (protein)
chain: MSPADISTKSSSFQRLDNMLPEAVSSACDWLIDQQKPDGHWVGPVESNACMEAQWCLALWFLGQEDHPLRPRLAQALLEMQREDGSWGIYVGADHGDINTTVEAYAALRSMGYAADMPIMAKSAAWIQQKGGLRNVRVFTRYWLALIGEWPWDKTPNLPPEIIWLPDNFIFSIYNFAQWARATMMPLTILSARRPSRPLLPENRLDGLFPEGRENFDYELPVKGEEDLWGRFFRAADKGLHSLQSFPVRRFVPREAAIRHVIEWIIRHQDADGGWGGIQPPWIWGLMALSVEGYPLHHPVLAKAMDALNDPGWRRDKGDASWIQATNSPVWDTMLAVLALHDAGAEDRYSPQMDKAIGWLLDRQVRVKGDWSIKLPDTEPGGWAFEYANDKYPDTDDTAVALIALAGCRHRPEWRERDIEGAISRGVNWLLAMQSSSGGWGAFDKDNNRSILTKIPFCDFGEALDPPSVDVTAHVLEAFGLLGISRNHPSVQKALAYIRSEQERNGAWFGRWGVNYVYGTGAVLPALAAIGEDMTQPYIVRACDWLMSVQQENGGWGESCASYMDINAVGHGVATASQTAWALIGLLAAKRPKDREAIARGCQFLIERQEDGSWTEEEYTGTGFPGYGVGQAIKLDDPSLPDRLLQGAELSRAFMLRYDLYRQYFPVMALSRARRMMKEDASAAA
B3: A683E: GmSHC mutation A683E in the C-terminal domain (protein)
chain: MSPADISTKSSSFQRLDNMLPEAVSSACDWLIDQQKPDGHWVGPVESNACMEAQWCLALWFLGQEDHPLRPRLAQALLEMQREDGSWGIYVGADHGDINTTVEAYAALRSMGYAADMPIMAKSAAWIQQKGGLRNVRVFTRYWLALIGEWPWDKTPNLPPEIIWLPDNFIFSIYNFAQWARATMMPLTILSARRPSRPLLPENRLDGLFPEGRENFDYELPVKGEEDLWGRFFRAADKGLHSLQSFPVRRFVPREAAIRHVIEWIIRHQDADGGWGGIQPPWIYGLMALSVEGYPLHHPVLAKAMDALNDPGWRRDKGDASWIQATNSPVWDTMLAVLALHDAGAEDRYSPQMDKAIGWLLDRQVRVKGDWSIKLPDTEPGGWAFEYANDKYPDTDDTAVALIALAGCRHRPEWRERDIEGAISRGVNWLLAMQSSSGGWGAFDKDNNRSILTKIPFCDFGEALDPPSVDVTAHVLEAFGLLGISRNHPSVQKALAYIRSEQERNGAWFGRWGVNYVYGTGAVLPALAAIGEDMTQPYIVRACDWLMSVQQENGGWGESCASYMDINAVGHGVATASQTAWALIGLLAAKRPKDREAIARGCQFLIERQEDGSWTEEEYTGTGFPGYGVGQAIKLDDPSLPDRLLQGAELSRAFMLRYDLYRQYFPVMALSRARRMMKEDASEAA
modifications: Gluconobacter morbifer
notes: GmSHC mutation A683E in the C-terminal domain

Test: Effect of single mutations of GmSHC on activity (site saturation mutagenesis / summary of variants)
Type: biochemical, Gluconobacter morbifer
Settings: single position in GmSHC, SEQ ID NO: 2 numbering
Description: Three different approaches were taken to generate SHC variants: rational mutagenesis (site-directed mutagenesis), semi-rational mutagenesis (via site-saturation library), and random mutagenesis (error prone PCR). Variants were expressed in a heterologous system and screened by GC.
To improve the conversion of HFA to sclareolide, GmSHC was mutated at one or more of the residues at position 45, 54, 178, 184, 222, 278, 284, 326, 348, 574 and 683 of SEQ ID NO: 2. Silent mutations at positions 249, 348, and 574 identified in an error prone library, were also introduced in the GmSHC of SEQ ID NO: 2.

Q: Which “effect of mutation on activity” value does the source give for B1 here?
A: increase in activity

Q: For B2, which “effect of mutation on activity” value is on record?
A: increases activity

Q: With B3 as the molecule, how does the “effect of mutation on activity” value read?
A: positive effect on activity
